Where a name gives a salt, the structure may show the parent alone.
Experiments:
[1] = target: HSA (Homo sapiens, UniProt P02768); test: Association constants of Bchl-Ds to HSA (spectroscopic titration); assay type: binding; conditions: for HSA association constant Ka(HSA): 1:1 non-covalent complex with HSA
Text: Association constants of Bchl-Ds to HSA were deduced from spectroscopic measurements of the ratio between Bchl-Ds and HSA for different concentrations of HSA using both factor analysis, as previously described and by monitoring changes in the near infrared (NIR) absorption of the Bchl-Ds during titration with HSA. Briefly, all four Bchl-Ds present broad NIR absorption with reduced intensity in SA-free aqueous solutions. Upon addition of SA, they form 1:1 complexes with the added protein ((Bchl-D)/SA) with strong and narrow NIR absorption bands. The narrow-band absorption is proportional to the ((Bchl-D)/SA) concentration enabling calculation of the association constant Ka through the following equation: [drawing 1]
Where [SA]0 is the analytical concentration of the added SA and [(Bchl-D/SA)] is the concentration of the Bchl-D complex with SA calculated from the spectral changes.

[2] = Biodistribution studies (tissue extraction, fluorescence); assay type: in vivo, CD-1 nude female mice
Method: Anaesthetized mice were i.v. injected with 15 mg/kg STL-6014 (n = 27) or 9 mg/kg STL-7012 (n = 15). At each indicated time point, three animals were sacrificed and blood, kidney, liver and tumor tissues were collected into pre-weighed vials and frozen at -20°C. Tissue samples were homogenized in methanol (100 mg tissue/ml) and extracted the next morning by centrifugation (13,000 × g five minutes) at room temperature. Supernatants were diluted in methanol by a factor of two and drug concentration was determined by fluorescence measurements (Varian - Cary Eclipse spectrofluorimeter, Palo Alto, California, USA) at 750 nm (peak values). Drug concentrations were interpolated from a fluorescence calibration curve, based on predetermined drug concentrations using absorption spectroscopy.

[3] = test system: MDA-MB-231-RFP tumors; test: In vivo competition between STL-6014 and free c(RGDfK); parameters: species or system CD-1 nude female mice
Method: STL-6014 (140 nmol, 7.5 mg/kg) was i.v. injected to the tail vein of mice one hour after being pre-injected with an excess (8.5 μmol) of c(RGDfK) free peptide. Whole-body fluorescence images were recorded up to 24 hours post-STL-6014 injection (IVIS®, Xenogen Corp., Alameda, CA, USA) with the respective filter settings, described above.

[4] = test system: large MDA-MB-231-RFP tumors; test: Fluorescence imaging of dissected tumors (spatial distribution); assay type: in vivo, CD-1 nude female mice; conditions: 15 mg/kg i.v.
[5] = test system: MDA-MB-231-RFP tumors; conditions: mouse, in vivo
Method: (§1) Mammary fat pads (left, bottom nipple) of female mice were inoculated with harvested MDA-MB-231-RFP human breast cancer cells (4 × 10^6 in 100 μl saline). Tumors were classified as 'small' (≤100 mm^3) at one to two weeks from time of cell injection, or 'large' after three to four weeks (necrotic tumors, 250 to 500 mm^3). To avoid tumor burden, mice were sacrificed (cervical dislocation) when tumor size reached 10% of body weight or at 90 days post-implantation. External caliper measurements, length (L), width (W) and depth (D) were used to calculate in vivo tumor volume according to the formula: V = L/2 · W/2 · D/2 · π · 4/3 [46].
(§2) The in Vivo Optical Imaging System (IVIS®100/XFO-12, Xenogen Corp., Alameda, CA, USA) was used to acquire fluorescent images of the RFP-expressing tumors, as well as Bchl-D compounds associated with tissues and organs after their intravenous (i.v.) infusion to the tested animals. The field of view was 15 cm. RFP fluorescence, in units of photons/sec, was detected using 525/50 nm and 612/75 nm filter sets for excitation and emission, respectively, with one second integration time. NIR fluorescence of the different Bchl-Ds, in units of photons/sec, was detected using 680/30 nm and 847/75 nm filter sets for excitation and emission, respectively, at an integration time of five seconds. Background fluorescence for all quantitative analyses was calculated by recording the average fluorescence (photons/sec)/cm^2 from three animals in three different areas around and within the tumor of untreated animals provided with a similar diet for three days before measurements.
(§3) Drug accumulation was determined following i.v. administration of molar equivalents of the Bchl-D moiety to the tail vein of mice fed with a chlorophyll-free, purified diet (Harlan Teklad, Harlan Laboratories, Indianapolis, IN, USA) for three days before administration (in order to reduce skin and food autofluorescence). Before imaging, mice were anesthetized by intraperitoneum injection of a 30 μl mixture of 85:15 ketamine:xylazine.
(§4) Xenogen Living Image Software (Xenogen Corp., Alameda, CA, USA) was used for sequential fluorescent image acquisition [see Additional file 1] and superimposition of photographic images of mice and color-coded fluorescent images.

[6] = in vivo; conditions: female, CD-1 nude, mouse
Method: as §1, §2, §3, §4

[7] = test system: αVβ3 integrin receptors; parameters: method as in PMID 16309948; conditions: cited from earlier work
[8] = parameters: method as in PMID 11216533; conditions: cited from earlier work
[9] = test system: MDA-MB-231-RFP tumors; test: Whole-body fluorescence imaging of drug accumulation and clearance in tumors; conditions: large necrotic tumors, 9 mg/kg i.v., from one hour post injection
Method: as §1, §2, §3, §4

[10] = test system: primary xenografts; conditions: circulates as non-covalent complex with SA; cited from earlier work
[11] = 48 to 72 hours post-administration

Sequence of HSA (P02768 25-609): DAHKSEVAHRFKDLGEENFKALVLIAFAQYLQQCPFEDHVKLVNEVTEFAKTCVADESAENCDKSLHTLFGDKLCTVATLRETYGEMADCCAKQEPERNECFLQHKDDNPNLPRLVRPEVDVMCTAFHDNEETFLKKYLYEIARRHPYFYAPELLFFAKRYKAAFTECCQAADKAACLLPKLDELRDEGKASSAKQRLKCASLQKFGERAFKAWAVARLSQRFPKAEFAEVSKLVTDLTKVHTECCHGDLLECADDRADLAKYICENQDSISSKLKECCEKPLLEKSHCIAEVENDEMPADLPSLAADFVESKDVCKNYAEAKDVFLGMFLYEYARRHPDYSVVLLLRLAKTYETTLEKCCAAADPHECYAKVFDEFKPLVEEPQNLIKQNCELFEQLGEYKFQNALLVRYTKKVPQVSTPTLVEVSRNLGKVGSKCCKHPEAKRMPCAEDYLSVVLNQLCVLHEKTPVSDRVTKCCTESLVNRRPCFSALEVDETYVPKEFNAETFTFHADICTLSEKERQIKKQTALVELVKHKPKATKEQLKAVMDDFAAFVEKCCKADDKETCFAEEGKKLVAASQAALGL

## CC[C@H]1c2cc3[nH]c(c(CC(=O)OC)c4nc(cc5[nH]c(cc(n2)[C@@H]1C)c(C(C)=O)c5C)[C@@H](C)[C@@H]4CCC(=O)NCCCC[C@@H]1NC(=O)[C@@H](Cc2ccccc2)NC(=O)[C@H](CC(=O)O)NC(=O)CNC(=O)[C@H](CCCNC(=N)N)NC1=O)c(C(=O)NCCS(=O)(=O)O)c3C [STL-6014, 3^1-oxo-15-methoxycarbonylmethyl-Rhodobacteriochlorin 13^1-(2-sulfoethyl)amide-17^3-c(RGDfK)amide potassium salt]
[1]; as restated in discussion, read-out: Ka, association with SA (converted)
  Kd: 8.33 µM
[2]; 15 mg/kg i.v.
  t1/2 of hepatic clearance: about four
  time to clear to nearly background levels in normal tissues: less than 72 hours
[2]; [11]
  tumor level relative to blood: about two orders of magnitude
  tumor level relative to kidney, liver, intestines, lung and skin: about two
[2]; 48 to 72 hours post-administration, data not shown
  tumor level relative to spleen, heart, brain, fat and muscle: about 10 fold
[2]; blood, liver, kidney, 15 mg/kg i.v.
  time of peak levels in normal tissues post-injection: less than five
[2]; large tumors, 15 mg/kg i.v.
  time of peak concentration in tumors post-injection: eight
[2]; large tumors, 15 mg/kg i.v., eight hours post-injection
  peak concentration in tumors: 11 μg drug/gr tumor tissue
[2]; large tumors, eight hours post-injection
  peak tumor level as share of the initial drug dose: about 3.0%
[3]; large tumors, data not shown
  STL-6014 uptake and accumulation after pre-administration of free c(RGDfK): not affected
[3]; small tumors, 7.5 mg/kg (140 nmol) i.v. one hour after 61-fold molar excess c(RGDfK)
  STL-6014 tumor fluorescence after pre-injection of free c(RGDfK): almost no STL-6014 fluorescence was detected in the tumor
[4]; beyond 16 hours post-injection
  location of fluorescence signal in dissected tumor: only observed in the necrotic domain
[4]; four hours post injection
  location of fluorescence signal in dissected tumor: within the viable tumor region alone
[5]
  time to full clearance from tumor: less than two
  tumor half lifetime (T1/2): in the range of days
[5]; iv, 15 mg/kg
  clearance from small tumors relative to large tumors (faster): more than 10 fold
  persistence of tumor fluorescence: still detectable at nine days
  t^1_1/2 of tumor fluorescence, bi-exponential decay: 12.0 ± 3.5 h
  t^2_1/2 of tumor fluorescence, bi-exponential decay: 210.0 ± 86.0 h
  time for tumor fluorescence to return to background values: ≤ 48 h
  time of peak tumor fluorescence after administration: six to eight
[6]
  Tmax: 48 to 72 h
[6]; iv, 15 mg/kg, t1/2 of tumor fluorescence, mono-exponential decay
  half-life: 840 ± 90 min

## Cyclo-Arg-Gly-Asp-D-Phe-Lys [c(RGDfK)]
[7]
  Ka, association of c(RGDfK) moiety with αVβ3 integrin receptors: about 10^9 M^-1
[8]
  half life in a similar animal model: minutes

## CC[C@H]1c2cc3[nH]c(c(CC(=O)OC)c4nc(cc5[nH]c(cc(n2)[C@@H]1C)c(C(C)=O)c5C)[C@@H](C)[C@@H]4CCC(=O)O)c(C(=O)NCCS(=O)(=O)[O-])c3C.[K+] [STL-7012, 3^1-oxo-15-methoxycarbonylmethyl-Rhodobacteriochlorin 13^1-(2-sulfoethyl)amide dipotassium salt]
[1]
  HSA association constant Ka(HSA): 0.44 ± 0.09 µM⁻¹
[2]; 9 mg/kg i.v., any time longer than one hour post administration
  accumulation in tumor, fluorescence of tissue extracts: no STL-7012 accumulation in the tumor
[9]
  tumor fluorescence in whole-body imaging: No specific tumor fluorescence

## CC[C@H]1c2cc3[n-]c(c(CC(=O)OC)c4nc(cc5[n-]c(cc(n2)[C@@H]1C)c(C(C)=O)c5C)[C@@H](C)[C@@H]4CCC(=O)[O-])c(C(=O)NCCS(=O)(=O)[O-])c3C.[H+].[H+].[Pd+2] [WST11]
[1]
  HSA association constant Ka(HSA): 0.54 ± 0.07 µM⁻¹
[10]
  accumulation in the tumor tissue: no accumulation in the tumor tissue
